Data taken from EP2074145B1.

Tests used:
[1] = biological target: biotinylated complete Aβ1-42 peptide (Bachem) (UniProt P05067); experiment: ELISA with biotinylated complete Aβ1-42 peptide
[2] = biological target: T1, peptide 13 (aa 13-21 of Aβ); experiment: ELISA with biotinylated peptide Amyloid beta 13-21
T1 sequence (peptide, biotinylated (site not stated)): HHQKLVFFA

[3] = biological target: T1, peptide 13 (aa 13-21 of Aβ); experiment: ELISA with biotinylated peptides (Mimotopes protocol)

Sequence of biotinylated complete Aβ1-42 peptide (Bachem) (P05067 672-713 limits assumed): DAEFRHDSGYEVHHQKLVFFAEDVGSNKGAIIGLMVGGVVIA

## humanized anti-human amyloid beta monoclonal antibody hC2
[1]
  O.D: 0.9 O.D
[2]
  O.D: 1.23 O.D
[3]
  percent higher affinity than to the whole Aβ1-42 protein: 36%
